Target: hdac2_mouse Hdac2 (UniProt P70288)
Sequence (P70288 whole entry): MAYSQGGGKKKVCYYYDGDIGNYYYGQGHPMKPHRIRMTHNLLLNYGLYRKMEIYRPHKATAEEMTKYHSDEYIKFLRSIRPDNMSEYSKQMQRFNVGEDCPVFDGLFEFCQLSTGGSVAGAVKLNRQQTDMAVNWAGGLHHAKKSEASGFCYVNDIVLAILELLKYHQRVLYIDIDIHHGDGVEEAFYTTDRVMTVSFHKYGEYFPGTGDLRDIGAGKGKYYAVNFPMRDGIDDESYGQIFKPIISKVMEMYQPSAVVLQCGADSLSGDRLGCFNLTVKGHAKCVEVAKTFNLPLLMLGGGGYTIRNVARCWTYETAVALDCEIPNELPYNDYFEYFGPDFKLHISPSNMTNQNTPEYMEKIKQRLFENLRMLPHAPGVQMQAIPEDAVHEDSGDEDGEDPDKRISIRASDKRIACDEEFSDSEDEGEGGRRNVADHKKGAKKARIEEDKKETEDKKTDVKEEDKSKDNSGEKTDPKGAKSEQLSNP

Sequence of PR domain zinc finger protein 1 (Homo sapiens), O75626-2 K778R (O75626 37-825, stated change not applied): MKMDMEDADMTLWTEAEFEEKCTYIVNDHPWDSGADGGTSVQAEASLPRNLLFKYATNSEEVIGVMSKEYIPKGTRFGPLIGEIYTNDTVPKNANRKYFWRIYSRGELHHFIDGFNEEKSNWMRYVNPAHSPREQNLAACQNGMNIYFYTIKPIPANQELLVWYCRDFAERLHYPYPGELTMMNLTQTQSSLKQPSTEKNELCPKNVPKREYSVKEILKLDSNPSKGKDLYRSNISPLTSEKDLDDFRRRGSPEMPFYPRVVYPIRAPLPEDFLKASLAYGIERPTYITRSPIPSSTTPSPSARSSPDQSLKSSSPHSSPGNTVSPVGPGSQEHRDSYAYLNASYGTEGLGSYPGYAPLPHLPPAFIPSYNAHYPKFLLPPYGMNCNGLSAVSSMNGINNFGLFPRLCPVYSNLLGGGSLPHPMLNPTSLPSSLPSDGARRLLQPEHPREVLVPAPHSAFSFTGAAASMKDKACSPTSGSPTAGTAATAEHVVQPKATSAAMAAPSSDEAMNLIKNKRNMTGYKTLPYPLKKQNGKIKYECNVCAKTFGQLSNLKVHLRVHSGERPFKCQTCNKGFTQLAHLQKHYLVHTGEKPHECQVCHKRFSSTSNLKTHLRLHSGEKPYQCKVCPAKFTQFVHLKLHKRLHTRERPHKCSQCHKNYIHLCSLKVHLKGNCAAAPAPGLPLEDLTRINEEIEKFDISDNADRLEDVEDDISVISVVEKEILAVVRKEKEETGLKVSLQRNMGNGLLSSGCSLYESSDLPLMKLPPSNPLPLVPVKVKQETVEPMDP

PR domain zinc finger protein 1 (Homo sapiens), O75626-2 K778R
effect of a mutation on the interaction: decreasing interaction

Source: IntAct's records for PubMed 22555612
